In patent publication US20220298212A1 (Molecular Partners, published 2022):
Values belong to the binder of their own block, whether it stands above or below them.

Legend:
[1] = target: T1, cell membrane-bound human 4-1BB (endogenous, on ionomycin/PMA stimulated CCRF-CEM cells or primary CD8+ T … (human, UniProt Q07011 24-255)); test: flow cytometry on PMA/ionomycin stimulated CEM cells, anti-penta-His Alexa Fluor-488 detection
T1 construct: also called cell membrane-expressed human 4-1 BB; 4-1BB on CEM cells
T1 sequence (Q07011 24-255 limits assumed): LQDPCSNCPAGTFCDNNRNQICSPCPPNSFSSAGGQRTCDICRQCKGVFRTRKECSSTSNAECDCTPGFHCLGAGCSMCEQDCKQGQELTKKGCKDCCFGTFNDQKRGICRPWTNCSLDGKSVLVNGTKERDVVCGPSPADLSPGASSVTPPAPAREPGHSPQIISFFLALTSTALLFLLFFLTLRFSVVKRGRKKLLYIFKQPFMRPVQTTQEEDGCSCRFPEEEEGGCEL
Method: Assay setup: Ankyrin repeat protein binding to cell membrane-bound human 4-1 BB on cells was measured by flow cytometry using the T lymphoblast cell line CCRF-CEM (ATCC® CCL-119™) stimulated with ionomcycin/PMA (phorbol 12-myristate 13-acetate) to express 4-1 BB. CEM cells cultured in RPMI medium supplemented with 10% (v/v) FBS+1% PenStrep were harvested and stimulated overnight in 96-well U-bottom plates using the same medium plus PMA (10 ng/ml) and ionomycin (500 ng/ml). […] Stimulated CEM cells were harvested, then 30,000 cells were incubated with increasing concentrations of His-tagged ankyrin repeat proteins in FACS buffer (PBS+2% (v/v) FBS+0.1% sodium azide) for 30 minutes on ice. […] After washing with PBS, cells were stained with Live/Dead Aqua dye (Thermo Fisher, No. L34957) and analyzed using a BD FACS Canto II or AttuneNxT cytometer.
The multivalent ankyrin repeat proteins were tested, together with binding proteins comprising only one corresponding 4-1 BB-specific ankyrin repeat domain (with our without a linked localizer), for binding to PMA/ionomycin stimulated CEM cells.

[2] = target: T2, biotinylated human 4-1BB (recombinant Fc fusion protein of the extracellular domain of human 4-1BB) (human, UniProt Q07011 24-186, biotinylated (site not stated)); test: SPR (ProteOn), biotinylated human 4-1BB on NLC chip, PBST
T2 construct: Bought from BPS Bioscience; tie to the Fc fusion is by the Materials paragraph; also called h4-1BB; CD137; not shown: Fc part of the purchased fusion (BPS Bioscience)
Method: Briefly, biotinylated human 4-1 BB was diluted in PBST (PBS, pH 7.4 containing 0.005% Tween 20®) and coated on a NLC chip (BioRad) to a level of around 320 resonance units (RU) (600 RU for single trace SPR measurements). The interaction of ankyrin repeat protein and h4-1 BB was then measured by injecting 200 μl running buffer (PBS, pH 7.4 containing 0.005% Tween 20®) containing serial dilutions of ankyrin repeat proteins covering a concentration range between 50 nM and 0.5 nM for multi-trace SPR measurements or 50 nM for single trace measurements (on-rate measurement), followed by a running buffer flow for at least 30 minutes at a constant flow rate of 100 μl/min (off-rate measurement). The regeneration was performed using 30 μl of 10 mM Glycine pH 2 followed by 30 μl of 124 mM H₃PO₄. The signals (i.e. resonance unit (RU) values) of the interspots and a reference injection (i.e. injection of running buffer only) were subtracted from the RU traces obtained after injection of ankyrin repeat protein (double-referencing). Based on the SPR traces obtained from the on-rate and off-rate measurements, the on- and off-rate of the corresponding ankyrin repeat protein—4-1 BB interaction was determined.
Dissociation constants (KD) were calculated from the estimated on- and off-rates using standard procedures known to the person skilled in the art.

[3] = target: T2, biotinylated human 4-1BB (recombinant …); test: SPR; accurate fit not possible due to slow off-rate

B1: DARPin® protein #55 (designed binder)
chain: GSDLGDKLLHAAYYGQDDEVRILLAAGADVNAKDTQGLTPLHLAAAIGHLEIVEVLLKAGADVNAKDAYGETPLHLVASRGHLEIVEVLLKAGADVNAQDYSGRTPADLAAEYGHEDIAEVLQKLNGSPTPTPTTPTPTPTTPTPTPTGSDLGDKLLHAAYYGQDDEVRILLAAGADVNAKDTQGLTPLHLAAAIGHLEIVEVLLKAGADVNAKDAYGETPLHLVASRGHLEIVEVLLKAGADVNAQDYSGRTPADLAAEYGHEDIAEVLQKLNGSPTPTPTTPTPTPTTPTPTPTGSDLGDKLLHAAYYGQDDEVRILLAAGADVNAKDTQGLTPLHLAAAIGHLEIVEVLLKAGADVNAKDAYGETPLHLVASRGHLEIVEVLLKAGADVNAQDYSGRTPADLAAEYGHEDIAEVLQKLN
notes: not shown: TAA-specific ankyrin repeat domain (localizer)
EC50 (read off the curve) [1]: ~7 nM

B3: DARPin® protein #27 (designed binder)
chain: MRGSHHHHHHGSDLGKKLLEAARAGQDDEVRELLKAGADVNAKDHQGATPLHNAAWAGHLEIVEVLLKAGADVNAKDKAGYTPLHIAAITGHLEIVEVLLKAGADVNAKDQWGKTPLHLAAQVGHLEIVEVLLKAGADVNAQDKSGKTPADLAADAGHEDIAKVLQKLN
Kd [2]: 3.96 nM

Now from value to binder:

EC50 (read off the curve) [1]: ~8 nM
B2: DARPin® protein #52 (designed binder)
chain: GSDLGDKLLHAAYYGQDDEVRILLAAGADVNAKDTQGLTPLHLAAAIGHLEIVEVLLKAGADVNAKDAYGETPLHLVASRGHLEIVEVLLKAGADVNAQDYSGRTPADLAAEYGHEDIAEVLQKLNGSPTPTPTTPTPTPTTPTPTPTGSDLGDKLLHAAYYGQDDEVRILLAAGADVNAKDTQGLTPLHLAAAIGHLEIVEVLLKAGADVNAKDAYGETPLHLVASRGHLEIVEVLLKAGADVNAQDYSGRTPADLAAEYGHEDIAEVLQKLN
notes: as for B1

Kd [3]: < 0.02 nM
B4: DARPin® protein #51 (designed binder)
chain: GSDLGQKLLKAAQEGQDDEVRELLKAGADVNAKDLRGITPLHVAAWQGHLEIVEVLLKAGADVNAKDSKGETPLHLAAFRGHLEIVEVLLKAGADVNAQDQQGETPADLAALAGHVDIAEVLQKLNGSPTPTPTTPTPTPTTPTPTPTGSDLGQKLLKAAQEGQDDEVRELLKAGADVNAKDLRGITPLHVAAWQGHLEIVEVLLKAGADVNAKDSKGETPLHLAAFRGHLEIVEVLLKAGADVNAQDQQGETPADLAALAGHVDIAEVLQKLN
notes: as for B1
